Tests used:
[1] = target: T1, human BCMA on cells (human, UniProt Q02223 1-184); assay: cell-based or functional assay
T1 sequence (looked up): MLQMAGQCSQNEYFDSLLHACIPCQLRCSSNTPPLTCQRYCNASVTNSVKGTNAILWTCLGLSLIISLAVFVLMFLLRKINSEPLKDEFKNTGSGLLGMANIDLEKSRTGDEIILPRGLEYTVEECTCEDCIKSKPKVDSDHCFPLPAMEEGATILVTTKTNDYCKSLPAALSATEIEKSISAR

[2] = target: T1, human BCMA on cells; assay: cell-based or functional assay; remark: listed apart in the source
[3] = target: T2, human CD3e (Acro, Cat. No. CDE-H5223) (human, UniProt P07766 23-126); assay: SPR (Biacore T200), antibody captured by anti-hIgG, human CD3e as analyte, 1:1 model
T2 construct: also called human CD3e protein; hCD3e
Protocol: (§1) The affinity of the test antibody for human CD3e or human BCMA protein was determined by Biacore T200 (GE) as follows:
(§2) The response signals were detected in real time using Biacore software, and association and dissociation curves were obtained. The buffer used in the experiment was Biacore universal buffer (137 mM NaCl, 2.7 mM KCl, 10 mM Na₂HPO₄.12H₂O, 1.8 mM KH₂PO₄. 0.05% surfactant P-20 (w/v), pH 7.4). […] The flow rate in the flow cell was at 50 μL/min, the association was performed for 240 s, the dissociation was performed for 1400 s, the regeneration was performed using 3 M MgCl (GE) for 60 s, and the baseline was stable. Results were obtained by calculation according to the affinity and kinetics 1:1 binding mode in biacore evaluation software.

[4] = target: T1, human BCMA on cells; assay: flow cytometry on RPMI-8226 cells, fluorescent goat anti-human IgG detection
Protocol: (§3) NCI-H929 cells (BCMA+++), MM1S cells (BCMA++), and RPMI-8226 cells (BCMA+) in the logarithmic growth phase were taken, adjusted to a cell density of 5×10⁶-10×10⁶ cells/mL using RPMI medium (Hyclon, catalog No. SH30809.01) containing 2% FBS (fetal bovine serum), respectively, and seeded in a 96-well U-bottom cell culture plate (Costar, catalog No. 3799) at 50 μL per well. The test antibodies at different concentrations were prepared using the medium described above. […] The antibodies at different concentrations were added to the 96-well cell culture plate described above at 50 μL per well, mixed well and incubated at 4° C. for 1 h. The cells were washed with pre-cooled running buffer (MACS, catalog No. 130-091-221), and the supernatant was discarded. Pre-cooled fluorescent labeled goat anti-human IgG antibodies (Jackson, catalog No. 109-116-170) were added, and the cells were resuspended at 100 μL per well, mixed well and incubated at 4° C. for 30 min. After washing, 100 μL of pre-cooled running buffer was added to resuspend the cells. The cells were mixed well and collected while flowing on an Attune™ NxT flow cytometer, and the data was analyzed using Graphpad Prism5 software. FIGS. 7-9 and Table 11 show the binding ability of the anti-BCMA/anti-CD3 multispecific antibodies to NCI-H929 cells (BCMA+++), MM1S cells (BCMA++), and RPMI-8226 cells (BCMA+).

[5] = target: T1, human BCMA on cells; assay: flow cytometry, MM1S cells
Protocol: as §3

[6] = target: T1, human BCMA on cells; assay: flow cytometry, NCI-H929 cells
Protocol: as §3

[7] = target: T3, human BCMA protein (human, UniProt Q02223 1-54, limits assumed); assay: SPR (Biacore T200), antibody captured by anti-hIgG, human BCMA as analyte, 1:1 model
T3 construct: also called hBCMA; Antigen BCMA
T3 sequence (looked up): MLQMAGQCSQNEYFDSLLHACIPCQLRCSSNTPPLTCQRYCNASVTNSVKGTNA
Protocol: as §1, §2

[8] = target: T1, human BCMA on cells; assay: cell-based or functional assay; remark: listed apart in the source
[9] = target: T4, T cell surface CD3 (human, UniProt P07766 23-207); assay: flow cytometry, human CD3+ T cells
T4 construct: whole, on cells; also called CD3^+ T cells
Protocol: Human PBMC cells were sorted for CD3⁺ T cells using CD3 magnetic beads (Miltenyi, catalog No. 130-097-043): the cryopreserved PBMCs were thawed, and washed by centrifugation twice for counting. Running buffer (MACS, catalog No. 130-091-221) was added in a cell-to-buffer ratio of 10⁷:80 μL, CD3 beads were added in a cell-to-bead ratio of 10⁷:20 μL, and the mixture was mixed well and incubated at 4° C. for 15 min. The cells were washed with buffer in a cell-to-buffer ratio of 10⁷:1-2 mL. After centrifugation, the supernatant was discarded, and 500 μL of buffer was added to resuspend the cell pellet. The LS sorting column (Miltenyi, catalog No. 130-042-401) was placed on the MidiMACS Starting Kit (LS) magnetic rack (Miltenyi, catalog No. 130-091-051). After rinsing, the cell suspension was added and washed thrice. The LS sorting column was removed from the magnetic rack and placed on a clean centrifuge tube and 5 mL buffer was added to collect the sorted CD3⁺ T cells. After counting, the CD3⁺ T cells were adjusted to a cell density of 5×10⁶-10×10⁶ cells/mL using RPMI medium (Hyclone, catalog No. SH30809.01) containing 2% FBS (fetal bovine serum) and seeded in a 96-well U-bottom cell culture plate (Costar, catalog No. 3799) at 50 μL per well. The test antibodies at different concentrations were prepared using the medium described above. […] The antibodies at different concentrations were added to the 96-well cell culture plate described above at 50 μL per well, mixed well and incubated at 4° C. for 1 h. The cells were washed with pre-cooled running buffer (MACS, catalog No. 130-091-221), and the supernatant was discarded. Pre-cooled fluorescent labeled goat anti-human IgG antibodies (Jackson, catalog No. 109-116-170) were added, and the cells were resuspended at 100 μL per well, mixed well and incubated at 4° C. for 30 min. After washing, 100 μL of pre-cooled running buffer was added to resuspend the cells.

T4 sequence (P07766 23-207): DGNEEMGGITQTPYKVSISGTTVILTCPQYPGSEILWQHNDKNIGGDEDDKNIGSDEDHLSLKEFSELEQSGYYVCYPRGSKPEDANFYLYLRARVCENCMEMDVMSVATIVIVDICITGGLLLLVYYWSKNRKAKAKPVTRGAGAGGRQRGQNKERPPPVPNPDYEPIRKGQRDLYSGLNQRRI
T2 sequence (P07766 23-126 limits assumed): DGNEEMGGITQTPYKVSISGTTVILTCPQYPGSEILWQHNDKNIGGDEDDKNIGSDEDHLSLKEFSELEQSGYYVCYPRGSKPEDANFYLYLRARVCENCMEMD

B1: anti-BCMA/anti-CD3 multispecific antibody PC2 (bispecific antibody, human IgG1)
chain 1: QVQLVESGGGLVQPGGSLRLSCAASGYSSNVACMAWYRQAPGKGLEWVATIVADFGTTNYAASVKGRFTISQDNSKNTVYLQMNSLRAEDTAVYYCAATQRGGIDWCDEINYWGQGTLVTVSSGEPKSSDKTHTCPPCPAPEAAGGPSVFLFPPKPKDTLMISRTPEVTCVVVDVSHEDPEVKFNWYVDGVEVHNAKTKPREEQYNSTYRVVSVLTVLHQDWLNGKEYKCKVSNKALAAPIEKTISKAKGQPREPQVCTLPPSREEMTKNQVSLSCAVKGFYPSDIAVEWESNGQPENNYKTTPPVLDSDGSFFLVSKLTVDKSRWQQGNVFSCSVMHEALHNHYTQKSLSLSPGK
chain 2: QVQLVESGGGLVQPGGSLRLSCAASGFTFNSACMGWFRQAPGKGREGVSRIETGYGGTVYADSVKGRFTISRDNSKNTVYLQMNSLRAEDTAVYYCAAKRSWCTPTWWHELDYNYWGQGTQVTVSSGGGGSELVVTQEPSLTTSPGGTVTLTCRSSTGAVTTSNYANWVQQKPGQAPRGLIGGTNKRAPGTPARFSGSLLGGKAALTITGVQPEDEAEYYCALWYSNLWVFGGGTKLTVLGGGGSGGGGSGGGGSEVQLVESGGGLVQPGGSLRLSCAASGFTFNTYAMNWVRQAPGKGLEWVARIRSKYNNYATYYADSVKDRFTISRDDSKNTAYLQMNNLKTEDTAMYYCVRHGNFGNSYVSWFAYWGQGTLVTVSSGEPKSSDKTHTCPPCPAPEAAGGPSVFLFPPKPKDTLMISRTPEVTCVVVDVSHEDPEVKFNWYVDGVEVHNAKTKPREEQYNSTYRVVSVLTVLHQDWLNGKEYKCKVSNKALAAPIEKTISKAKGQPREPQVYTLPPCREEMTKNQVSLWCLVKGFYPSDIAVEWESNGQPENNYKTTPPVLDSDGSFFLYSKLTVDKSRWQQGNVFSCSVMHEALHNRFTQKSLSLSPGK
notes: Trivalent; two chains; human IgG1 knobs-into-holes Fc
Lysis EC50, NCI-H929 cells with human PBMCs (E:T 10:1, 24 h, LDH release) [1]: 0.527 nM | Maximum lysis rate, NCI-H929 cells with human PBMCs [1]: 38% | Lysis EC50, RPMI-8226 cells with human PBMCs (E:T 10:1, 24 h, LDH release) [2]: 0.0185 nM | Maximum lysis rate, RPMI-8226 cells with human PBMCs [2]: 39% | Kd [3]: 1.33 nM | EC50 (read off the curve) [4]: ~0.3 nM | EC50 [5]: 0.311 nM | Top(MFI) [5]: 115000 MFI | EC50 [6]: 1.03 nM | Top(MFI) [6]: 234000 MFI | Kd [7]: 0.0185 nM | Lysis EC50, MM1S cells with human PBMCs (E:T 10:1, 24 h, LDH release) [8]: 0.0605 nM | Maximum lysis rate, MM1S cells with human PBMCs [8]: 28% | EC50 [9]: ~462 nM | Top(MFI) [9]: 37200 MFI
